T1: Mcm4 (Saccharomyces cerevisiae, UniProt P30665 1-933)
T1 construct: Mcm4, Saccharomyces cerevisiae, full length; Subunit of m2, written alone for the contacts seen in the cryo-EM structures
T1 sequence (looked up): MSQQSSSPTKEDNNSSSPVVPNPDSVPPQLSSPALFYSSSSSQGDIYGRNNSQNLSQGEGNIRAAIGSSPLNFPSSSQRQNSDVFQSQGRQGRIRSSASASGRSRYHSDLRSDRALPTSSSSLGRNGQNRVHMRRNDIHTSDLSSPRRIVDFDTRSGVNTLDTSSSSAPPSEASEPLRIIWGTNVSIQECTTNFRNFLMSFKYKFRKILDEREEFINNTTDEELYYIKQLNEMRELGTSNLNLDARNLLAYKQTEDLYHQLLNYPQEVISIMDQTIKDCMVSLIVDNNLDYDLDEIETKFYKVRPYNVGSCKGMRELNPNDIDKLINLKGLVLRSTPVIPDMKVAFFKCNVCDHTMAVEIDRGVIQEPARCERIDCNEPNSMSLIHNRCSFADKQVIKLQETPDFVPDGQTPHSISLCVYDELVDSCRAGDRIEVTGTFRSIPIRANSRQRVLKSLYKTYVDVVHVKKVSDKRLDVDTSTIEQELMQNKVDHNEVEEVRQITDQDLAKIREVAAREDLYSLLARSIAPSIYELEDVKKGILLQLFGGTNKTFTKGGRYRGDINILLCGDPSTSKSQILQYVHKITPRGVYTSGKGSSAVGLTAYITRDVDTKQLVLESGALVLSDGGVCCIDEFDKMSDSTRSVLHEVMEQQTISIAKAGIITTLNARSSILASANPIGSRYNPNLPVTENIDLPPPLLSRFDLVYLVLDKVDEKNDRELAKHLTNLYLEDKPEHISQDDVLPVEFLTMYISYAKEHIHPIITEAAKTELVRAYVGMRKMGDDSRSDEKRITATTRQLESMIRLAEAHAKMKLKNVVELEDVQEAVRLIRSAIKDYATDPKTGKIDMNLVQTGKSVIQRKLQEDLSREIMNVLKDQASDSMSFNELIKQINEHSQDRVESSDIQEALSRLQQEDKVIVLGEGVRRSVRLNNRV


Columns and labels:
Assay in all cases: cryo-EM structure; MD-(ATPγS): 250 nM DH released from beads by AluI + 750 nM DDK, 10 min 24 °C, buffer C with 3 mM ATPγS; GraFix glycerol gradient with glutaraldehyde; states I-III
Details in all cases: both partners purified
MCM2-7 double hexamer = biological target: T2, MCM2-7 double hexamer (Saccharomyces cerevisiae, UniProt P29469 1-868; P24279 1-971; P30665 1-933; P29496 1-775; P53091 1-1017; P38132 …)
T2 construct: Mcm2, Saccharomyces cerevisiae, full length; Mcm3, Saccharomyces cerevisiae, full length; Mcm4, Saccharomyces cerevisiae, full length; Mcm5, Saccharomyces cerevisiae, full length; Mcm6, Saccharomyces cerevisiae, full length; Mcm7, Saccharomyces cerevisiae, full length; Two head-to-head MCM2-7 hexamers assembled on origin DNA; becomes (thio-)phosphorylated by DDK on Mcm2, Mcm4, Mcm6 (and Mcm7) …
T2 sequence (P29469 whole entry, chain 1 of 4): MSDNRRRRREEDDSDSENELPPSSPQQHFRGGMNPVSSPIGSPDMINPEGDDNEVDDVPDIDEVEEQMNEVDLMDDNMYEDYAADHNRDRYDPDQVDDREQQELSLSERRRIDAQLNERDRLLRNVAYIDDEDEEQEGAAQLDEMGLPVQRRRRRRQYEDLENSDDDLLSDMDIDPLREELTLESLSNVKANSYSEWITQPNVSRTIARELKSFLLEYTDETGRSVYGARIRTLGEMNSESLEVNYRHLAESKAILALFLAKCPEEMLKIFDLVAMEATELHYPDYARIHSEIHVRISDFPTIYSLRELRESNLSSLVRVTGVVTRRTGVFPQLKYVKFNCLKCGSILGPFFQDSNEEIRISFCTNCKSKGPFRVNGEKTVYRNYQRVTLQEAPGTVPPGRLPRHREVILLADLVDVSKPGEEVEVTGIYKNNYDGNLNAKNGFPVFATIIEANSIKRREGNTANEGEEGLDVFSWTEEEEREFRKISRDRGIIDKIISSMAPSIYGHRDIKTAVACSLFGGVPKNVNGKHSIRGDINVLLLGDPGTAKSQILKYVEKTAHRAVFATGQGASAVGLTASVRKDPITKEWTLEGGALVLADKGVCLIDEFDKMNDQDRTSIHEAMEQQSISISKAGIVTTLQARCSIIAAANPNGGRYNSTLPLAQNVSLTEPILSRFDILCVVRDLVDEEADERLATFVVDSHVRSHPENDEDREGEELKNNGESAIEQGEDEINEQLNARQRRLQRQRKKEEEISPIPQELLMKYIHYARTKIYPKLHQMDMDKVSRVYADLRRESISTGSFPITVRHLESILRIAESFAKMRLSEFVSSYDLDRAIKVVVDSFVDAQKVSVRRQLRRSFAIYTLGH
T2 sequence (P24279 whole entry, chain 2 of 4): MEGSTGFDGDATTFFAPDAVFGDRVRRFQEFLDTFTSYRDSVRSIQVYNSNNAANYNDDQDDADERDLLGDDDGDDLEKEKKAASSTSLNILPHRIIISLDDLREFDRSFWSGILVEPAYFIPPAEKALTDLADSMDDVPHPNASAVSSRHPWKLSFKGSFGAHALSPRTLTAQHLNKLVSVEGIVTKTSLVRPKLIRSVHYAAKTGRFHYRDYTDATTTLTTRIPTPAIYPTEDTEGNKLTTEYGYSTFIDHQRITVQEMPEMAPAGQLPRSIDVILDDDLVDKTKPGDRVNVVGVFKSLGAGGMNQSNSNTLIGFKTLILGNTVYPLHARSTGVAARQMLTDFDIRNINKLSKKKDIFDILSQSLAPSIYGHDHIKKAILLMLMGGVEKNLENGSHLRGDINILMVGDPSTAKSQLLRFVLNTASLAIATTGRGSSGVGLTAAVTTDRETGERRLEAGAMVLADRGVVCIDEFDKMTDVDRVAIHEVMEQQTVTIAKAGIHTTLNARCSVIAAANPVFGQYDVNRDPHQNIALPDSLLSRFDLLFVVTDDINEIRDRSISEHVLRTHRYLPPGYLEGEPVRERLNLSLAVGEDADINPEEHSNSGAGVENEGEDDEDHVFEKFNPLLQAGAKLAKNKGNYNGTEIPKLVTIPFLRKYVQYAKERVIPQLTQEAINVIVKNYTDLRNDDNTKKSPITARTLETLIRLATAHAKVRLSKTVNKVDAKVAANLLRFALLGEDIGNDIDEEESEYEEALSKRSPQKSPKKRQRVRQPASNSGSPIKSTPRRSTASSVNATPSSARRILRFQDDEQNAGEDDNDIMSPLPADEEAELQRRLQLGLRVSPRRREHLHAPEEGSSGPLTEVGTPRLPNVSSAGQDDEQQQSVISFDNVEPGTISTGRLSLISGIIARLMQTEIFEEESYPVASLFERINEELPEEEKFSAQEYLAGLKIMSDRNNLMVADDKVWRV
T2 sequence (P29496 whole entry, chain 4 of 4): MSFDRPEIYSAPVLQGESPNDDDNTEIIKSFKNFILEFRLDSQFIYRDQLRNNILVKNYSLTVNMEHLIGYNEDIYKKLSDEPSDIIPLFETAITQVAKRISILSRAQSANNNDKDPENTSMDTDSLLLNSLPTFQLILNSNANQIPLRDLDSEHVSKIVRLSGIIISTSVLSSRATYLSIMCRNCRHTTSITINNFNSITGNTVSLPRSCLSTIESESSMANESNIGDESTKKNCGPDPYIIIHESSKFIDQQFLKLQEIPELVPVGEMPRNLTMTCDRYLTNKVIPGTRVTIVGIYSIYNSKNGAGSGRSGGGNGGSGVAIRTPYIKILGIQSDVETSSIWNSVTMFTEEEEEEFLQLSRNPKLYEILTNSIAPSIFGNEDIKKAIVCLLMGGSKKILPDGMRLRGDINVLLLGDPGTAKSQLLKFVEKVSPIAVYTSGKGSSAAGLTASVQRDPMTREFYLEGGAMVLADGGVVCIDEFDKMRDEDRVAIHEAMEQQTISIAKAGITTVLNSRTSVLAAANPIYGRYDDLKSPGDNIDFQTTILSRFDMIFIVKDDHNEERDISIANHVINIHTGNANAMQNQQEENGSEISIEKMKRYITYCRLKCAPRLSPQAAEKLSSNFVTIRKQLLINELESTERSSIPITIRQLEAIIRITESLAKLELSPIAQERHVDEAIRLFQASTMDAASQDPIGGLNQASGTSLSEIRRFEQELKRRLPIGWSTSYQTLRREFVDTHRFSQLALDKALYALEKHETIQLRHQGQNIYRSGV
T2 sequence (P53091 whole entry, chain 5 of 4): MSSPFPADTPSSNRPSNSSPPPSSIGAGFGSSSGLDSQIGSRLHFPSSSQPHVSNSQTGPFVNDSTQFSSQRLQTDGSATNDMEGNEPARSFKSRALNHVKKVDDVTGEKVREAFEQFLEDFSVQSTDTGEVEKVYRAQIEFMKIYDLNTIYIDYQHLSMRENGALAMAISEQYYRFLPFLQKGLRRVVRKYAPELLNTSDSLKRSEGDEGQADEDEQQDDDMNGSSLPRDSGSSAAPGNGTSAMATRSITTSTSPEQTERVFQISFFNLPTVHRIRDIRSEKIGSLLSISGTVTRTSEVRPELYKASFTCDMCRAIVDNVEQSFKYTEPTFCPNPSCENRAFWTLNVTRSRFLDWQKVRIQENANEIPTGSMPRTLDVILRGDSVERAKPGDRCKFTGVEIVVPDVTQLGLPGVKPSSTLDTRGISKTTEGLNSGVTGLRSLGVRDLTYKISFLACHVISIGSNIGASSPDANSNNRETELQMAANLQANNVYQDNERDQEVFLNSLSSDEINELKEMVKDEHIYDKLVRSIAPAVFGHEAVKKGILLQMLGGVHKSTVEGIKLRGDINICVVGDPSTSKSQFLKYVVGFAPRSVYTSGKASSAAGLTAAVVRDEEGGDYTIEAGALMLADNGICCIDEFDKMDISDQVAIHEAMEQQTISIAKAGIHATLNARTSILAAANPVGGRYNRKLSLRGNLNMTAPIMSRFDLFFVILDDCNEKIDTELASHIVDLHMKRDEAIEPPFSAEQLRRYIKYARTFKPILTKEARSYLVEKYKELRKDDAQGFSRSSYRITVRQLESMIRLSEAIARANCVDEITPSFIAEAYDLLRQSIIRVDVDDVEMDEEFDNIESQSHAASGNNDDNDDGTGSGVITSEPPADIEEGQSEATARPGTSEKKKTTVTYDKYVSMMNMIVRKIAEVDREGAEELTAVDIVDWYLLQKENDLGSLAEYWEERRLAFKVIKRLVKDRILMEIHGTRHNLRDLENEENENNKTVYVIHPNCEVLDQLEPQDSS

Mcm4 = biological target: T1, Mcm4
Mcm3 = biological target: T3, Mcm3 (Saccharomyces cerevisiae, UniProt P24279 1-971)
T3 construct: Mcm3, Saccharomyces cerevisiae, full length; Subunit of m2, written alone for the contacts seen in the cryo-EM structures
T3 sequence (P24279 whole entry): as the sequence (P24279 whole entry, chain 2 of 4) above

stoichiometry N (MCM2-7 double hexamer)	binding result (Mcm4)	binding result (Mcm3)	Binder
2 DDK per MCM2-7 double hexamer			Dbf4-dependent Cdc7 kinase (DDK), wild type (complex, Saccharomyces cerevisiae, Cdc7 serine/threonine kinase, Saccharomyces cerevisiae, full length; Dbf4 (dumbbell former 4), Saccharomyces cerevisiae, full length; An MBP tag was cleaved with PreScission Protease; Treated with lambda phosphatase during purification; autophosphorylates (thio-phosphorylates with ATPγS) in the assays; also called Cdc7-Dbf4; WT DDK; source: budding yeast cells, purified (amylose resin, lambda …)) chain 1: MTSKTKNIDDIPPEIKEEMIQLYHDLPGIENEYKLIDKIGEGTFSSVYKAKDITGKITKKFASHFWNYGSNYVALKKIYVTSSPQRIYNELNLLYIMTGSSRVAPLCDAKRVRDQVIAVLPYYPHEEFRTFYRDLPIKGIKKYIWELLRALKFVHSKGIIHRDIKPTNFLFNLELGRGVLVDFGLAEAQMDYKSMISSQNDYDNYANTNHDGGYSMRNHEQFCPCIMRNQYSPNSHNQTPPMVTIQNGKVVHLNNVNGVDLTKGYPKNETRRIKRANRAGTRGFRAPEVLMKCGAQSTKIDIWSVGVILLSLLGRRFPMFQSLDDADSLLELCTIFGWKELRKCAALHGLGFEASGLIWDKPNGYSNGLKEFVYDLLNKECTIGTFPEYSVAFETFGFLQQELHDRMSIEPQLPDPKTNMDAVDAYELKKYQEEIWSDHYWCFQVLEQCFEMDPQKRSSAEDLLKTPFFNELNENTYLLDGESTDEDDVVSSSEADLLDKDVLLISE chain 2: MVSPTKMIIRSPLKETDTNLKHNNGIAASTTAAGHLNVFSNDNNCNNNNTTESFPKKRSLERLELQQQQHLHEKKRARIERARSIEGAVQVSKGTGLKNVEPRVTPKELLEWQTNWKKIMKRDSRIYFDITDDVEMNTYNKSKMDKRRDLLKRGFLTLGAQITQFFDTTVTIVITRRSVENIYLLKDTDILSRAKKNYMKVWSYEKAARFLKNLDVDLDHLSKTKSASLAAPTLSNLLHNEKLYGPTDRDPRTKRDDIHYFKYPHVYLYDLWQTWAPIITLEWKPQELTNLDELPYPILKIGSFGRCPFIGDRNYDESSYKRVVKRYSRDKANKKYALQLRALFQYHADTLLNTSSVNDQTKNLIFIPHTCNDSTKSFKKWMQEKAKNFEKTELKKTDDSAVQDVRNEHADQTDEKNSILLNETETKEPPLKEEKENKQSIAEESNKYPQRKELAATPKLNHPVLATFARQETEEVPDDLCTLKTKSRQAFEIKASGAHQSNDVATSFGNGLGPTRASVMSKNMKSLSRLMVDRKLGVKQTNGNNKNYTATIATTAETSKENRHRLDFNALKKDEAPSKETGKDSAVHLETNRKPQNFPKVATKSVSADSKVHNDIKITTTESPTASKKSTSTNVTLHFNAQTAQTAQPVKKETVKNSGYCENCRVKYESLEQHIVSEKHLSFAENDLNFEAIDSLIENLRFQI
	binds	binds	Mcm7 (natural protein, Saccharomyces cerevisiae, UniProt P38132 1-845, looked up, Mcm7, Saccharomyces cerevisiae, full length; Subunit of m2, written alone for the contacts seen in the cryo-EM structures) MSAALPSIQLPVDYNNLFNEITDFLVTFKQDTLSSDATRNENEDENLDAENIEQHLLEKGPKYMAMLQKVANRELNSVIIDLDDILQYQNEKFLQGTQADDLVSAIQQNANHFTELFCRAIDNNMPLPTKEIDYKDDVLDVILNQRRLRNERMLSDRTNEIRSENLMDTTMDPPSSMNDALREVVEDETELFPPNLTRRYFLYFKPLSQNCARRYRKKAISSKPLSVRQIKGDFLGQLITVRGIITRVSDVKPAVEVIAYTCDQCGYEVFQEVNSRTFTPLSECTSEECSQNQTKGQLFMSTRASKFSAFQECKIQELSQQVPVGHIPRSLNIHVNGTLVRSLSPGDIVDVTGIFLPAPYTGFKALKAGLLTETYLEAQFVRQHKKKFASFSLTSDVEERVMELITSGDVYNRLAKSIAPEIYGNLDVKKALLLLLVGGVDKRVGDGMKIRGDINVCLMGDPGVAKSQLLKAICKISPRGVYTTGKGSSGVGLTAAVMKDPVTDEMILEGGALVLADNGICCIDEFDKMDESDRTAIHEVMEQQTISISKAGINTTLNARTSILAAANPLYGRYNPRLSPLDNINLPAALLSRFDILFLMLDIPSRDDDEKLAEHVTYVHMHNKQPDLDFTPVEPSKMREYIAYAKTKRPVMSEAVNDYVVQAYIRLRQDSKREMDSKFSFGQATPRTLLGIIRLSQALAKLRLADMVDIDDVEEALRLVRVSKESLYQETNKSKEDESPTTKIFTIIKKMLQETGKNTLSYENIVKTVRLRGFTMLQLSNCIQEYSYLNVWHLINEGNTLKFVDDGTMDTDQEDSLVSTPKLAPQTTASANVSAQDSDIDLQDA
